The results in this text go back to patent US12723105 (BEIJING STARMAB BIOMED TECHNOLOGY, dated 2026).

T1: human LAG3 (human, UniProt P18627 29-450, limits assumed)
T1 construct: also called hLAG3
T1 sequence: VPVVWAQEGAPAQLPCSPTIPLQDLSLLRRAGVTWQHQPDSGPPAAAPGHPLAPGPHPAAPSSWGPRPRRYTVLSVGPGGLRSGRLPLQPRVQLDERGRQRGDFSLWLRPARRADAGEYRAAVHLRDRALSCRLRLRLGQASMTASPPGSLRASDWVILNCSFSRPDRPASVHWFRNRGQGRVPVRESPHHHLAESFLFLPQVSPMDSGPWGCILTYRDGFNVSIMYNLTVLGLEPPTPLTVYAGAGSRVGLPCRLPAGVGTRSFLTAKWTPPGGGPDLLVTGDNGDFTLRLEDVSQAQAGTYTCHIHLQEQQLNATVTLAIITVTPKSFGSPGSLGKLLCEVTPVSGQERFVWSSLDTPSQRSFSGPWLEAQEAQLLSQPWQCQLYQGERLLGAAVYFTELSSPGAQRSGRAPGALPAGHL

B1: 33-8 (VHH)
VHH: EVQLMESGGGLVQAGGSLRLSCAASGRTVSTYVMGWFRQAPGKEREFVAEINRIGDTLYNRTSVKGRFTISRDNAKNTVYLQMNSLEPEDTAVYSCAARVIGTSTYNYWGQGTQVTVSS
notes: not shown: C-terminal His-tag
B2: 33-13 (VHH)
VHH: QVQLVESGGGLVQAGGSLRLSCAASGSISSINSMNWYRQAPGKQREKVAGINSSGDTNYVDSVKGRFTISRDNAERTTYLQMNNLKPEDTGLYYCNADPRPWPNDVAFGSWGQGTRVTVSS
notes: not shown: C-terminal His-tag
B3: 33-4 (VHH)
VHH: QVQLVESGGGSVQPGGSLRLSCEASGSIFSIAHMGWYRQAPGKQRELVAVISSGGRTNYVDSVKGRFTISRDNAKNTVYLQMNSLKAEDTAVYFCNVAVVGGPRFDYWGQGTQVTVSS
notes: not shown: C-terminal His-tag
B4: 33-1 (VHH)
VHH: QVQLVESGGGLVQTGGSLRLSCAASGGTFTNYAMGWFREAPGKEREFVAGINNNGDTLYNTNSVKGRFTISRDNAKNTVYLHMNSLKLEDTAVYYCAANLKGASWYSANYDYWGQGTQVTVSS
notes: not shown: C-terminal His-tag
B5: 33-14 (VHH)
VHH: QVQLVESGGGLVQAGDSLKLSCAASGRTSLILAMAWWRQAPGKEREFAGRIWWNNDMTRYSDSVKGRFTISKDNTKNMVYLRMDNLGPEDTAVYYCEADLIGGSRGWGQGTQVTVSS
notes: not shown: C-terminal His-tag
B6: 33-2 (VHH)
VHH: QVQLVESGGGLVQAGGSLRLSCTASANILRTAPMAWYRQAPGKQREFVALITADGTTDYQESVKGRFTTSRDNAKNTVYLQMNSLQSEDTARYFCKVYSYWGQGTQVTVSS
notes: not shown: C-terminal His-tag
B7: LG-D8 (VHH)
VHH: QVQLVESGGGLVQPGGSLRLSCAASGFTFGKYAMSWVRQVPDKGLEWVSSISSSGRDTSYADSAKGRFTIFRNNAANTVYLQMDNLKLEDTGVYYCVKCLEVWATREYDGWGQGTQVTVSS
notes: not shown: C-terminal His-tag
B8: hLG9 (VHH)
VHH: EVQLLESGGGLVQPGGSLRLSCAASGSTIDDYPMSWFRQAPGKGREGVAAIDDSDESTYYADSVKGRFTISRDNSKNTLYLQMNSLRAEDTAVYYCARGAIFMIDGVDVFLTYYYDSWGQGTLVTVSS
notes: also called LG9H; not shown: C-terminal His-tag
B9: LG99 (VHH)
VHH: EVQLLESGGGLVQPGGSLRLSCAASGSTIDDYPMSWFRQAPGKGREGVAAIDDSDESTYYADSVKGRFTISRDNSKNTLYLQMNSLRAEDTAVYYCARGALFMIDGVDVFLTYYFEFWGQGTLVTVSS
notes: not shown: C-terminal His-tag
B10: LG9 (VHH)
VHH: EVQLVESGGGLVQPGGSLRLSCAASGSTIDDYPIGWFRQAPGKEREGVSCIDDSDESTYYADSVKGRFTISRDNAKNTVYLQMNSLKPEDTAVYYCARGAIFMIDGVDVFLTYYYDSWGQGTQVTVSS
notes: not shown: C-terminal His-tag
B11: LG2 (VHH)
VHH: QVQLVESGGGLVQPGGSLRLSCAASGTIFSINAMGWYRQAPGKQRELVAIVTFGGSTNYADSVKGRFTISRDNAKNTVYLQMNSLKPEDTAVYYCSARNVQSPVQYHLAVWGQGTLVTVSS
notes: not shown: C-terminal His-tag
B12: LG6 (VHH)
VHH: EVQLVESGGGLVQAGGSLRLSCAVSGSIFSISTMGWYRQAPGKQRELVASITARGSADYADSVKGRFTISRDNAKNTVYLQMSSLKPEDTAVYYCNTDTRSTLYHYSWGQGTQVTVSS
notes: not shown: C-terminal His-tag
B13: LG22 (VHH)
VHH: EVQLVESGGGLVQPGGSLRLSCAASGFTLDYYAIGWFRQAPGKEREGVSCIINSDGSTYYADSVKGRFTISRDNAKNTVYLQMNSLKPEDTAVYYCATDRYSDCRGPYDYWGQGTQVTVSS
notes: not shown: C-terminal His-tag
B14: LG19 (VHH)
VHH: QVQLVESGGGLVQPGGSLRLSCAASGFTLDYYAIGWFRQAPGKEREGVSCISSSDGSTYYADSVKGRFTISRDNAKNTVYLQMNSLKPEDTAVYYCAADRRGSCRQYDYWGQGTQVTVSS
notes: not shown: C-terminal His-tag
B15: A09-10 (VHH)
VHH: QVQLVESGGGLVQAGGSLRLSCAASGGGRTFSNYALGWFRQAPGKEREFVAAISRSGGNINYADSAKGRFTISRDNFKNTTYLQMSSLKPEDTAVYYCAAHYLLLPSYISTSTNMYNYWGQGTQVTVSS
notes: not shown: C-terminal His-tag
B16: hA09-10 (VHH)
VHH: EVQLVESGGGLVQPGGSLRLSCAASGGGRTFSNYALGWFRQAPGKEREFVAAISRSGGNINYADSVKGRFTISRDNAKNTVYLQMSSLRAEDTAVYYCAAHYLLLPSYISTSTNMYNYWGQGTQVTVSS
notes: also called humanized A09-10; not shown: C-terminal His-tag
B17: A09-08 (VHH)
VHH: QVQLVESGGGLVQAGGSLRLSCAASGYGVNSYALGWFRQAPGKEREFVAAISRSGGNINYADSAKGRFTISRDNFKNTTYLQMSSLKPEDTAVYYCAAHYLLLPSYISTSTNMYNYWGQGTQVTVSS
notes: not shown: C-terminal His-tag
B18: A09-006 (VHH)
VHH: QVQLVESGGGLVQAGGSLRLSCAASGIRFFGSALGWFRQAPGKEREFVAAISRSGGNINYADSAKGRFTISRDNFKNTTYLQMSSLKPEDTAVYYCAAHYLLLPSYISTSTNMYNYWGQGTQVTVSS
notes: also called A09-06; not shown: C-terminal His-tag
B19: A09-61 (VHH)
VHH: QVQLVESGGGLVQAGGSLRLSCAASGYGVNSYALGWFRQAPGKEREFVAAISRSGGNINYADSAKGRFTISRDNFKNTTYLQMSSLKPEDTAVYYCAAHYLLLPSYISFASKMYNYWGQGTQVTVSS
notes: not shown: C-terminal His-tag
B20: A09-31 (VHH)
VHH: QVQLVESGGGLVQAGGSLRLSCAASGYGVNSYALGWFRQAPGKEREFVAAISRSGGNINYADSAKGRFTISRDNFKNTTYLQMSSLKPEDTAVYYCAAHYLLLPSYIATAIKMYNYWGQGTQVTVSS
notes: not shown: C-terminal His-tag
B21: PL2 (VHH)
VHH: QVQLVESGGGLVQAGGSLRLSCAVSGLTLSRYTMAWFRQAPGKEREFVAAIIRNSVSTFHEESVKGRFTISRDNVKNMMYLQMNTLKPEDTAVYYCATNVGPTGGFSLQSVQRYDAWGQGTQVTVSS
notes: not shown: C-terminal His-tag
B22: PL11 (VHH)
VHH: QVQLVESGGGLVQAGGSLRLSCAASGRTFNTYDMGWFRRAPGKEREFVAGIDWYTTNTYYADSVKGRFTISRDNAKNTVYLQMRSLKPEDTAVYYCAAGIRSTATITGQADYWGQGAQVTVSS
notes: not shown: C-terminal His-tag
B23: PL17 (VHH)
VHH: QVQLVESGGGLVQAGGSLRLSCAASGRTFNTYDMGWFRRTPGKEREFVAGMDWNTINTYYADSVKGRFTISRDNAKNTVYLQMRSLKPEDTAVYYCAAGIRSTAIITGQADYWGQGTQVTVSS
notes: not shown: C-terminal His-tag

Human CD33, sequence (P20138 18-259 limits assumed): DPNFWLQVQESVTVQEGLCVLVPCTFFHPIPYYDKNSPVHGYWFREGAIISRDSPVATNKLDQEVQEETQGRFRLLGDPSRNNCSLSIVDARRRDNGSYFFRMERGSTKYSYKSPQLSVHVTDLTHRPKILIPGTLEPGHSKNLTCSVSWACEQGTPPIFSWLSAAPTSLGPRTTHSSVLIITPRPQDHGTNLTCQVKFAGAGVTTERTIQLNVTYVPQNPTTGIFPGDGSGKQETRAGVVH

One assay addresses Human CD33 (human, UniProt P20138 18-259). Description: BLI (Octet) as in Example 1, His-tagged VHH, human CD33. (Biolayer interferometry detects binding as a change in optical thickness at a sensor tip.)
Consider B1, for which the Kd is 511 pM, the koff worked out at 0.0007 s⁻¹ and the on-rate constant (kon) came out at 1.1e+06 M⁻¹ s⁻¹.
The like results for B2 were, in that order, 409 pM, 0.0005 s⁻¹ and 1e+06 M⁻¹ s⁻¹.
The like results for B3 were, in that order, 995 pM, 0.0009 s⁻¹ and 900000 M⁻¹ s⁻¹.
Taken in the same sequence, the figures for B4 were 1010 pM, 0.00081 s⁻¹ and 800000 M⁻¹ s⁻¹.
With B5, the Kd is 136 pM, the koff came out at 0.000109 s⁻¹ and the kon came out at 800000 M⁻¹ s⁻¹.
Taken in the same sequence, the figures for B6 were 753 pM, 0.0006 s⁻¹ and 800000 M⁻¹ s⁻¹.

For another assay, the target named is T1, human LAG3. Put plainly: BLI (Octet) as in Examples 1-4, His-tagged VHH, human LAG3.
Molecule B7 displayed a Kd of 2980 pM, a koff of 9.82e-05 s⁻¹ and an on-rate constant (kon) of 33000 M⁻¹ s⁻¹.
In the case of B8, the Kd was determined as 2710 pM, the koff is 0.000298 s⁻¹ and the kon is 110000 M⁻¹ s⁻¹.
The like results for B9 were, in that order, 79.2 pM, 2.91e-05 s⁻¹ and 367000 M⁻¹ s⁻¹.
Taken in the same sequence, the figures for B10 were 1770 pM, 0.00011 s⁻¹ and 62100 M⁻¹ s⁻¹.
The like results for B11 were, in that order, 630000 pM, 0.021 s⁻¹ and 33300 M⁻¹ s⁻¹.
Regarding B12, binding was characterised by a dissociation constant (Kd) of 19000 pM, the off-rate (koff) was determined as 0.000522 s⁻¹ and the association rate constant (kon) was 27500 M⁻¹ s⁻¹.
The like results for B13 were, in that order, 267 pM, 1.14e-05 s⁻¹ and 42700 M⁻¹ s⁻¹.
The like results for B14 were, in that order, 114 pM, 1.09e-05 s⁻¹ and 87000 M⁻¹ s⁻¹.

A further assay deals with T2, human CD47 (R & D systems) (human, UniProt Q08722 19-139).
T2 construct: The Octet analyte was bought (R&D Systems); also called Human CD47 antigen; hCD47
Put plainly: BLI (Octet), His-tagged VHH on anti-penta-His tips, soluble human CD47.
B15 gave a Kd of 26.7 pM, a koff of 1.14e-06 s⁻¹ and an on-rate constant (kon) of 42700 M⁻¹ s⁻¹.
The molecule B16 showed a Kd of 27.6 pM, a koff of 1.1e-06 s⁻¹ and an on-rate (kon) of 39800 M⁻¹ s⁻¹.
Taken in the same sequence, the figures for B17 were 63 pM, 2.1e-06 s⁻¹ and 33300 M⁻¹ s⁻¹.
Molecule B18 displayed an equilibrium dissociation constant (Kd) of 11.4 pM, an off-rate (koff) of 1.09e-06 s⁻¹ and an association rate constant (kon) of 87000 M⁻¹ s⁻¹.
The like results for B19 were, in that order, 1770 pM, 0.00011 s⁻¹ and 62100 M⁻¹ s⁻¹.
Taken in the same sequence, the figures for B20 were 19000 pM, 0.000522 s⁻¹ and 27500 M⁻¹ s⁻¹.

The target in another assay is T3, Human PD-L1 antigen (human, UniProt Q9NZQ7 19-238).
T3 construct: also called PD-L1 protein
T3 sequence (Q9NZQ7 19-238 limits assumed): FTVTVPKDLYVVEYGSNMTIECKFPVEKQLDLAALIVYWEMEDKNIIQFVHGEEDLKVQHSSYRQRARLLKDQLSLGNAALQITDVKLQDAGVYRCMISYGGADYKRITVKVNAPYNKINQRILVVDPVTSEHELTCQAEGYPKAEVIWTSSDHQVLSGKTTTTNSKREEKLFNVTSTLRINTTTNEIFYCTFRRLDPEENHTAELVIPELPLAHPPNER
Description: BLI (Octet), His-tagged VHH on anti-penta-His tips, soluble human PD-L1.
In the case of B21, the Kd was 630000 pM, the koff was determined as 0.021 s⁻¹ and the kon was 33300 M⁻¹ s⁻¹.
Taken in the same sequence, the figures for B22 were 19000 pM, 0.000522 s⁻¹ and 27500 M⁻¹ s⁻¹.
The like results for B23 were, in that order, 11.4 pM, 1.09e-06 s⁻¹ and 87000 M⁻¹ s⁻¹.

Broadly, the Kd is a measure of binding affinity in units of concentration. Read a high Kd as a looser complex. Broadly, the koff is the rate constant with which the complex falls apart. What is called kon is the second-order rate constant of association. Lower therefore signals slow association.
